Measurements: the supplement of paper PMC7877785
± gives the uncertainty stated by the source.

Assay: self-splicing fitness, log relative to wild type (ln ratio); higher = more splicing; Tetrahymena group I intron in knt gene, E. coli kanamycin selection, DiMSum; sequences stand for … in CUCUCU…GGAGGGAAAAGUUAUCAGGCAUGCACCUGGUAGCUAGUCUUUAAACCAAUAGAUUGCAUCGGUUUAAAAGGCAAGACCGUCAAAUUGCGGGAAAGGGGUCAACAGCCGUUCAGUACCAAGUCUCAGGGGAAACUUUGAGAUGGCCUUGCAAAGGGUAUGGUAAUAAGCUGACGGACAUGGUCCUAACCACGCAGCCAAGUCCUAAGUCAACAGAUCUUCUGUUGAUAUGGAUGCAGUUCACAGACUAAAUGUCGGUCGGGGAAGAUGUAUUCUUCUCAUAAGAUAUAGUCGGACCUCUCCUUAAUGGGAGCUAGCGGAUGAAGUGAUGCAACACUGGAGCCGCUGGGAACUAAUUUGUAUGCGAAAGUAUAUUGAUUAGUUUUGGAGUACUCGUGGUCG
Method in brief: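 Colonies from six replicate transformations of E. coli BL21(DE3) were pooled and amplicon-sequenced on an Illumina HiSeq 2500. The library placed an intron with all eight P1ex-region nucleotides randomised inside the knt kanamycin-resistance gene on pET-22b(+), and cells grew overnight at 37°C or 30°C on LB agar with or without 25 μg/mL kanamycin (plus 100 μg/mL carbenicillin, 50 μM IPTG, 0.2% rhamnose). Fitness is the DiMSum error-weighted combination of wild-type-normalised replicate fold changes, kanamycin versus none.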

Sequence | self-splicing fitness (ln) (30 °C) | self-splicing fitness (ln) (37 °C)
GGUAAGCAAUAUUACGUGUU | -1.4 ± 0.075 | -0.901 ± 0.083
GGUAAGCAAUAUUACGUUAU | -2.4 ± 0.17 | -2.3 ± 0.24
GGUAAGCAAUAUUACGUUCU | -1.44 ± 0.12 | -0.359 ± 0.12
GGUAAGCAAUAUUACGUUGG | -2.59 ± 0.38 | -1.99 ± 0.39
GGUAAGCAAUAUUACGUUGU | -3.1 ± 0.26 | -1.61 ± 0.36
GGUCAGCAAUAUUACGACGG | -0.435 ± 0.14 | -0.175 ± 0.16
GGUCAGCAAUAUUACGAGAG | -3.37 ± 0.42 | -1.16 ± 0.25
GGUCAGCAAUAUUACGCACG | 0.0799 ± 0.1 | 0.287 ± 0.13
GGUCAGCAAUAUUACGCAGU | -1.33 ± 0.11 | -0.639 ± 0.13
GGUCAGCAAUAUUACGCAUA | -0.703 ± 0.088 | -0.214 ± 0.11
GGUCAGCAAUAUUACGCCGG | -2.68 ± 0.27 | -2.79 ± 0.3
GGUCAGCAAUAUUACGCCUC | -0.643 ± 0.12 | 0.0345 ± 0.14
GGUCAGCAAUAUUACGCGGG | – | -2.61 ± 0.28
GGUCAGCAAUAUUACGGCGC | -0.127 ± 0.12 | -0.0173 ± 0.14
GGUCAGCAAUAUUACGGGAU | -1.12 ± 0.16 | -2.85 ± 0.38
GGUCAGCAAUAUUACGGGGA | -1.25 ± 0.17 | -1.87 ± 0.2
GGUCAGCAAUAUUACGUAAC | -1.32 ± 0.14 | -0.628 ± 0.16
GGUCAGCAAUAUUACGUAAG | -1.87 ± 0.15 | -0.22 ± 0.18
GGUCAGCAAUAUUACGUAUC | -0.892 ± 0.078 | -0.138 ± 0.1

Sequence | self-splicing fitness (ln) (30 °C) | self-splicing fitness (ln) (37 °C)
GGUCAGCAAUAUUACGUGCA | 0.0844 ± 0.11 | 0.539 ± 0.15
GGUCAGCAAUAUUACGUGCC | -2.9 ± 0.23 | -0.811 ± 0.26
GGUCAGCAAUAUUACGUGUU | -0.208 ± 0.047 | 0.537 ± 0.063
GGUCAGCAAUAUUACGUUAG | -2.17 ± 0.14 | -1.68 ± 0.18
GGUCAGCAAUAUUACGUUGC | -1.98 ± 0.098 | -0.999 ± 0.1
GGUGAGCAAUAUUACGAACC | – | -2.72 ± 0.22
GGUGAGCAAUAUUACGCGCA | -0.814 ± 0.21 | -0.146 ± 0.21
GGUGAGCAAUAUUACGGAGU | -3.25 ± 0.26 | -1.9 ± 0.19
GGUGAGCAAUAUUACGGAUA | -2.24 ± 0.18 | -1.88 ± 0.22
GGUGAGCAAUAUUACGGAUU | -0.567 ± 0.14 | -1.26 ± 0.19
GGUGAGCAAUAUUACGGCAU | -1.66 ± 0.25 | -1.05 ± 0.28
GGUGAGCAAUAUUACGGCCU | -2.79 ± 0.26 | -2.96 ± 0.43
GGUGAGCAAUAUUACGGGAU | -3.28 ± 0.41 | -2.62 ± 0.34
GGUGAGCAAUAUUACGGUAA | – | -2.66 ± 0.4
GGUGAGCAAUAUUACGGUAG | -2.67 ± 0.22 | -2.59 ± 0.33
GGUGAGCAAUAUUACGGUAU | -3.49 ± 0.23 | -3 ± 0.4
GGUGAGCAAUAUUACGGUCU | -0.893 ± 0.14 | -0.768 ± 0.2
GGUGAGCAAUAUUACGUAAG | -3.05 ± 0.45 | -2.22 ± 0.28
GGUGAGCAAUAUUACGUAGC | -2.64 ± 0.3 | -1.27 ± 0.29
